Assay results taken from paper PMC6078998.

Tests used:
[1] = target: recombinant human HIRA(661–1017) (human) (UniProt P54198); test: AUC; sedimentation velocity, c(S) model in SEDFIT, 141,995×g; buffer with 300 mM NaCl, and also with 150 mM NaCl with consistent values
[2] = target: recombinant human HIRA(661–1017) (human) (UniProt P54198); test: AUC; sedimentation equilibrium of the HIRA(661–1017)–CABIN1 FL complex isolated from a size-exclusion peak, slightly lower rotor speeds; 4 °C, 20 mM Tris pH 8.0, 300 mM NaCl, 1 mM TCEP; SEDPHAT ABBB model (A the HIRA trimer, B a CABIN1 monomer), apparent constants

Sequence of CABIN1 full length (FL), recombinant, Q9Y6J0 1-2220 (natural protein) (Q9Y6J0 whole entry): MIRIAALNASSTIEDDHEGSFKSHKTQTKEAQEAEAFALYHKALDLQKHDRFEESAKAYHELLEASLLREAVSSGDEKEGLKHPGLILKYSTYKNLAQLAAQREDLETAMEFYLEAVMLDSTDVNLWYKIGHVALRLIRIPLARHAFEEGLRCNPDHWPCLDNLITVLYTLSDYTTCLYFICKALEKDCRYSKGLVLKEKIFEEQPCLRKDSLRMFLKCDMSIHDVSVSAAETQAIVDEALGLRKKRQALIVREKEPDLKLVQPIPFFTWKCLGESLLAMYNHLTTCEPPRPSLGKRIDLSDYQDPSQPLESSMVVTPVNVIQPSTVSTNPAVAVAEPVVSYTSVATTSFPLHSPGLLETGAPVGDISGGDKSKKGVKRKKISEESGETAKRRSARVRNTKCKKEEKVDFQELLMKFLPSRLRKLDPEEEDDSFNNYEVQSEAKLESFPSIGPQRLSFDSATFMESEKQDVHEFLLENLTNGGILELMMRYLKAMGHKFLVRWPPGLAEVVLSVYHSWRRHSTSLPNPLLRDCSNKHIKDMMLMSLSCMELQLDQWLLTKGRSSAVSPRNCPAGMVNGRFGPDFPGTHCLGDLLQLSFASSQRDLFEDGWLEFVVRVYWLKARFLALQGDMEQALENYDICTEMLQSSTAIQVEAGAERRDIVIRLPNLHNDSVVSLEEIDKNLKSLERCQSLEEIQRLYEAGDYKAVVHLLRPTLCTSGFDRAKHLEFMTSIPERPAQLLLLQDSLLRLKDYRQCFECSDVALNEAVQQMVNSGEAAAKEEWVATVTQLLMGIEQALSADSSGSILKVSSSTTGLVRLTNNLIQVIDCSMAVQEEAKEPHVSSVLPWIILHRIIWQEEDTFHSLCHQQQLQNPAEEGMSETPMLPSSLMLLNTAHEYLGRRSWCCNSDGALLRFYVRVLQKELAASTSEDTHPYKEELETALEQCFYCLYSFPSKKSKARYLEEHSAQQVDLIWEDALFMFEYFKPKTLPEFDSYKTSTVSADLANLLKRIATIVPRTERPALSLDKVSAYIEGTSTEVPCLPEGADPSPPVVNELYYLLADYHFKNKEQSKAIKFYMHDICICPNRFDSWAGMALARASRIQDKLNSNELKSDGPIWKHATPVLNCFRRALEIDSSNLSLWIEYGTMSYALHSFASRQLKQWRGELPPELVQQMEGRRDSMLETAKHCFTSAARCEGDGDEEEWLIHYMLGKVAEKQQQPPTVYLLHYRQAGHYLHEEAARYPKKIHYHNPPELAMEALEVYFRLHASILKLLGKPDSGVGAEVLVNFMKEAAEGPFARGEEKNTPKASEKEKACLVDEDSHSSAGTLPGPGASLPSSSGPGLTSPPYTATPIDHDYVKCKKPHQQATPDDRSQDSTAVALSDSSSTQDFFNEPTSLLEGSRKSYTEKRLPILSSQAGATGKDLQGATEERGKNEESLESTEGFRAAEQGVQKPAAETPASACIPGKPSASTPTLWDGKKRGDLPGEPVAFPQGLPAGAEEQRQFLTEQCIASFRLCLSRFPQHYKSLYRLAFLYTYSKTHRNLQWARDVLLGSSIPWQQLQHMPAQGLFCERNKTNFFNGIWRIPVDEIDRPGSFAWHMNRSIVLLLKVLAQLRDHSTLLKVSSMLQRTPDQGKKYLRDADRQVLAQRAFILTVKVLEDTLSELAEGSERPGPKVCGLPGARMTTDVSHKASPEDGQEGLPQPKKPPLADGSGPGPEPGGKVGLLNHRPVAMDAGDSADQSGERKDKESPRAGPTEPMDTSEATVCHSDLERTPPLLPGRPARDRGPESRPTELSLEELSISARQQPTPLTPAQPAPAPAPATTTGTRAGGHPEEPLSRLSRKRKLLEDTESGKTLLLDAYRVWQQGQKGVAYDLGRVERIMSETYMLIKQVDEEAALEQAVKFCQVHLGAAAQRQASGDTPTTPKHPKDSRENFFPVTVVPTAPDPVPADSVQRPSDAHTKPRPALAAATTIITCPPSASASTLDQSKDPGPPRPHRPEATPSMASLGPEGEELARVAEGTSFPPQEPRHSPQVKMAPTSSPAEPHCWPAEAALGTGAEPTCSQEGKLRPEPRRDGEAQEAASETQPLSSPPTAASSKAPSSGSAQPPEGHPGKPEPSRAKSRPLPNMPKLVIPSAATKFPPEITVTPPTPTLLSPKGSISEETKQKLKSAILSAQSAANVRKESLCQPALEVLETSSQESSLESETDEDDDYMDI
Sequence of recombinant human HIRA(661–1017) (human) (P54198 661-1017): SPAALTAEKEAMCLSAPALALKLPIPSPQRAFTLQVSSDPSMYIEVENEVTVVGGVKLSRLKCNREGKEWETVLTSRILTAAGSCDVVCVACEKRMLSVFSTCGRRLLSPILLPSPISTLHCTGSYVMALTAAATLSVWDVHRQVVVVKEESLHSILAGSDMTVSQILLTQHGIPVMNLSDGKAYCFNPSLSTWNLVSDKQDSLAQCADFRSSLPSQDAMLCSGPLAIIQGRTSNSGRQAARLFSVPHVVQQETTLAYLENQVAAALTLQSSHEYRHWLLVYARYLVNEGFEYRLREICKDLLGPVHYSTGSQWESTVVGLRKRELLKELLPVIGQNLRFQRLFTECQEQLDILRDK

stoichiometry N (CABIN1 per HIRA trimer) [1]: 2
Kd, third binding event [2]: 10 µM
apparent Kd, first two binding events [2]: < 0.001 µM
stoichiometry N (CABIN1 per HIRA trimer) [2]: 2
Substance: CABIN1 full length (FL), recombinant, Q9Y6J0 1-2220 (natural protein)
